B1: LINE1-full (parent)
chain: UACGUAGGUGGUUUUCCCCUGAUAGUGCUAAGGGGGCCUGGAAGUUUGGACUGGGCAGAGCUCAACACAGCGUGGCAAAGUGGCUGUGGCUAGACUGCCUCUCUGGAUUCCUCGUCACUCAGCAGGGCAUCUCUGAGAGAAAUGCC

Variants of: B1
Assay: self-cleavage, relative activity (ratio to wild type); higher = more cleavage; in vitro, sequencing; the parent is a self-cleaving ribozyme

Variant	self-cleavage
G33U A50U	1.14
G33A U45A	0.86
G33U U130A	0.9
G33A U132C	1.47
A31G G105U	1.27
A31G G105A	1.29
A31U C101U	0.58
G34A A141G	1.41
A31G A138U	1.05
G33A A142G	1.2
A31U A138G	1.26
A31G A57U	0.3
A31G A57G	0.95
G34C A50U	1.81
A31U U112A	1.8
G32U A77C	1.31
G32U A77G	3
G32C A141G	1.99
G32U A121U	0
G32C G60U	0.02
A31U U46C	1.05
G34A A107G	2.74
A31C A59G	0.26
A31C A59C	0.61

Variant	self-cleavage
G33U A64G	0.21
G33U A64U	0.41
G32A A67U	0.09
G32U U102C	1.13
G32A G75C	0.65
G32U U39A	1.06
A31U G144A	0.96
A31U G144U	1.03
G33C A69G	0.58
A31U U100G	1.23
A31U U100A	0.67
A31U U100C	1.41
G33C A59G	0
A31U C145A	1.65
G33A U102A	0.64
A31U U39A	1.05
G32A U102C	1.62
G32A C113U	1.43
A31G C90A	0.12
G34C A77U	1.18
G34C A77G	1.64
G33C A121G	0.21
G32U A42G	1.07
G32C A78G	0.73

Variant	self-cleavage
G33C U96A	0.05
G33A A107G	1.52
A31U U143A	0.78
A31G G83A	0.69
G33U A57G	0.64
G33U G114A	1.36
A31C G54A	1.02
A30U U45A	1.14
A31G A129G	1.05
G32A U85C	0.16
G32A U85A	0.14
G32A G97U	0.1
A31U U132C	1.39
G33A A77U	1.47
G34A U102C	1.43
A31U A117U	0.95
A31U A117G	1.2
G32A G89U	0.04
A31G A79U	2.64
G32A A124U	0
G32A A124G	0.69
A31C A79G	1.02
A31G C38U	0.99
A30U U52C	1.09

Variant	self-cleavage
A31G G126A	1.32
A31G G36C	1.67
A31G G36A	0.99
G34A C120U	1.64
A31U A142G	0.78
G34A A42G	0.35
A31G U87A	0.13
A30U U47C	1.07
A30U U47G	0.8
A31U A79U	2.19
A31U A79G	0.55
G32C U115C	1.56
A31U G125U	1.37
G32U U130A	1.7
A31G U104C	1.91
G34C A107G	1.12
G32A A107C	1.91
G32A A107U	1.27
G34A A43G	0.73
G34A A43C	1.23
A31U A136G	0.79
A31G A124G	1.09
G32C U45C	1
A31U U45C	1.17

Variant	self-cleavage
A31U U45A	0.9
G33A A57G	0.56
A31C A69G	0.33
A31G A43U	0.89
G34A A140G	0.5
G33C U62C	0.1
A31U U134A	0.9
A31U U134C	1.2
A31C U45C	1.84
G32C A77U	0.81
G32A U143C	1.4
A31C U109C	2.01
G33C U46A	1.45
A31U A140G	0.81
A31U A140U	0.94
G33A A43G	1.29
G33A A141G	1.01
A31C A129U	1.51
G32A C71U	0.91
G34A U45C	0.87
G34A U85C	0.12
G34A U85A	0.1
A31U G34A	0.56
A30U U39G	1.46

Variant	self-cleavage
A30U U39C	0.85
G33U A69G	0.69
G32A A138G	1.16
G34A A138G	1.68
G33C U119C	1.8
A31G U115C	1.37
G33A A117G	1.91
G33U A59U	0.62
A31U G70A	0.26
G32U G83U	0.6
G34A A64G	0.12
A31C U87A	0.07
G32A U132C	2.03
A31U U87C	0.24
A31U A67U	0.3
A31U A57U	0.24
A31U U47A	0.77
G34A U115A	1.08
G34A U115C	2.03
A31G A107G	1.09
A31U C110A	0.91
G32U U62C	0.06
G33U U143C	0.61
A31U A64U	0.42

Variant	self-cleavage
G33A U96C	0.12
A30U U85C	0.1
G34A	1.16
G34C	1.47
A30U G74C	1.27
A31G U112A	1.61
G32U A117G	1.13
G32C U108C	1.55
G33C C128U	0.92
G33U G75A	0.78
G33A A138G	1.36
G32A U73C	1.49
G33U A124U	1.84
G34A U52C	1.1
G34A U52A	1.7
G33A U115C	1.48
G34A U108C	1.16
G34A U108G	1.55
G33A U109C	1.05
A31U C63G	0
A31U U91C	0.38
A31U A69G	0.75
A31G G44A	2.09
G34A A142G	1.45

Variant	self-cleavage
G34A G70A	0.11
G32A A94G	0.36
G33U A117G	1.39
A31G U62C	0.13
A31U A129G	1.25
G34A C95A	0.07
A31C U143A	1.01
A31G U130A	1.26
A31G U130C	1.45
A31U C51G	1.4
G32A A140G	1.61
A31C U134A	1.26
A31U U81C	0.75
A31G A136G	1.37
A31G A136U	1.26
A31U A141G	1.01
A31C U132C	2.33
A31G G34A	0.77
G34C A42G	2.94
A31G C118U	1.73
G33C U87G	0.22
G32U A94G	0.2
G33U A43U	0.54
A30U U134A	0.68

Variant	self-cleavage
A30U U102C	0.75
A30U U102A	0.58
A31U U85A	0.07
A31U U85C	0.28
A31G A140G	1.79
A31G A117C	2.3
A31C U47A	1.12
G33U A67U	0.17
G33C A129U	1.69
G32C A59U	0.78
G32C G35A	1.16
A30U U81C	1.52
G32U A79G	0.97
A31G C37A	1.32
A31G C37U	1.6
G34A U46C	1.27
G34C C56G	0.03
G34A A57G	1.21
G33C U104A	1.27
A30U U109C	1.33
A31G A92G	0.09
G33U U134A	1.24
G32U U52A	1.85
G34C A136G	1.79

Variant	self-cleavage
G32A	1.23
G32U	0.98
G32C	1.23
G32U U73C	1.1
G34A A77G	1.88
G32A A43G	1.25
A31G U132A	0.94
G34C A141G	1.66
G33U C116U	1.17
A31G A94G	0.94
G34A A94G	0.18
A31U A42G	1.46
G33C A65G	0
G32C U100C	2.13
G32A A42G	1.27
G33A U87C	0.2
A30U U115C	1.16
A31G U45C	1.07
A31G U45A	0.85
G33C U100C	1.63
G33U A142G	0.88
G33A C76U	1.87
A31C A141G	1.43
G32A U52A	1.28

Variant	self-cleavage
G32A U119C	1.29
G32A U81A	1.46
G32A U81G	1.36
A31C A140G	1.18
A31U U115A	1.08
A31U U104C	1.3
G32U C116U	1.15
G33C U91C	0.41
G33C A79G	1.78
A31U C37A	1.53
G34A G144A	1.31
G32C A142G	1.58
G33U U87A	0.03
A31U A78U	1.57
A31U A78G	0.94
G34C G82A	2.16
A30U G114C	1.25
G32U A50G	0.69
G32A A136G	1.35
G32A A136U	0.45
G32U U85C	0.17
G32U U85A	0.09
G34A U100C	1.37
A31U A65G	0.16

Variant	self-cleavage
A31U A65U	0.21
G32A U96C	0.13
G33U A136G	1.7
G33A U91A	0.59
A31G C128U	1.02
G33U A141G	1.32
G32A C84U	0.21
G32A A57U	0.16
A31U G36U	0.81
G32A U47C	1.58
G32A U47A	1.37
G33U A94G	0.15
G32A A65G	0.11
G32A A65U	0.1
A31G A69G	0.78
G34A A67G	0.35
A31U G82U	0.74
A31G G127C	2.39
G34A A92G	0.08
A31G G32A	1.25
A31G G32U	1.13
A31C A138G	1.31
A30U U119C	0.5
A31G C131U	0.61

Variant	self-cleavage
A31G A64G	0.31
G34A A121U	1.22
G34A A121G	1.16
G33C A117U	0.85
G33A A121G	1.28
G33U C103U	1.15
A31G A77G	2.49
G34A A79U	2.33
G34A A79G	1.11
A31U C61A	0.13
G33U A79G	1.51
G32U U119A	0
A31U U130A	1.53
G34A C103U	1.7
G32A A142G	1.22
G34C A140G	1.38
G33A A136U	1.69
A31U U102A	1.91
A31U U102C	1.05
A30U U143G	1.38
A30U U143C	0.77
A31U U73C	1.51
A31U U108C	1.3
G32U A78G	0.94

Variant	self-cleavage
G32A U62C	0.07
G32A U62A	0.08
A31G U39C	1.17
G32A A92U	0.75
G32C U81A	1.9
G32C U81C	0.55
A31U U119A	1.17
G32A U87A	0.03
G32A U39A	1.66
G32A A78G	0.47
A31U G32A	1.56
A30U G89U	0.03
G33U C101U	1.26
A31U A77U	0.96
G33A C56U	0.35
A30U U73C	1.8
A30U U73A	2.55
G33A A50G	1.02
G33U U47C	1.73
G32A U134C	1.22
A31U C131U	1.06
A31G A50G	1.42
